Experimental data published in patent US20240010749A1 (Merck KGaA, published 2024).

T1: human CEACAM5 expressed on cancer cell lines (MKN-45, NCI-H441, SNU-16, SK-CO-1, LS174T) (human, UniProt P06731 35-685)
T1 sequence: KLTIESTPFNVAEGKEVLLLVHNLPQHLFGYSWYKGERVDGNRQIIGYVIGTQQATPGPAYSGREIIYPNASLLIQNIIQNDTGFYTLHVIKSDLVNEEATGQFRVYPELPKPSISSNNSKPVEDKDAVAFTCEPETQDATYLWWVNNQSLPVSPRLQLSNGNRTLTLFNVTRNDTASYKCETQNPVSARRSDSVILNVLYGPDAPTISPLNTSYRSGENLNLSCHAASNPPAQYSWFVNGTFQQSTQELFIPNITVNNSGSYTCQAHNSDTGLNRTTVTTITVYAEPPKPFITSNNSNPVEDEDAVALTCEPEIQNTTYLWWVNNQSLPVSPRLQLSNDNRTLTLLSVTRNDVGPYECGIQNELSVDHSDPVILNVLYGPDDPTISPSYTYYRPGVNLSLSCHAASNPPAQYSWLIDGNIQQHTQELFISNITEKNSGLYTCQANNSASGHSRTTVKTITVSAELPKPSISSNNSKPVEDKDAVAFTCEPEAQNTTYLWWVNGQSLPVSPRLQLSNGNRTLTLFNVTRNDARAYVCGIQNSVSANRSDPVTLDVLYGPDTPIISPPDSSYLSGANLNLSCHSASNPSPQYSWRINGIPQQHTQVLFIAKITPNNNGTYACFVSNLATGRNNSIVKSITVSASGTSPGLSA

B1: ADC1 (mAb1-glucuronid-exatecan) (other)
heavy: EVQLQESGPGLVKPSQTLSLTCTVSDGSVSRGGYYLTWIRQHPGKGLEWIGYIYYSGSTYFNPSLRSRVTMSVDTSKNQFSLKLSSVTAADTAVYYCARGIAVAPFDYWGQGTLVTVSSASTKGPSVFPLAPSSKSTSGGTAALGCLVKDYFPEPVTVSWNSGALTSGVHTFPAVLQSSGLYSLSSVVTVPSSSLGTQTYICNVNHKPSNTKVDKRVEPKSCDKTHTCPPCPAPPVAGPSVFLFPPKPKDTLMISRTPEVTCVVVDVSHEDPEVKFNWYVDGVEVHNAKTKPREEQYNSTYRVVSVLTVLHQDWLNGKEYKCKVSNKALPSSIEKTISKAKGQPREPQVYTLPPSREEMTKNQVSLTCLVKGFYPSDIAVEWESNGQPENNYKTTPPVLDSDGSFFLYSKLTVDKSRWQQGNVFSCSVMHEALHNHYTQKSLSLSPG
light: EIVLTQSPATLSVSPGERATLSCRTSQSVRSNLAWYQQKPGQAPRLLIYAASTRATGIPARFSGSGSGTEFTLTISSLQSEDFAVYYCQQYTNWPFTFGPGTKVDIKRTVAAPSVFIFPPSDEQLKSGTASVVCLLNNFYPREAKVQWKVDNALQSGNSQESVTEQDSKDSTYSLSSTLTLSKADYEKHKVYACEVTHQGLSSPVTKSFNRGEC
modifications: exatecan attached through the glucuronide linker of DL1 (maleimide) to cysteines of reduced interchain disulfides; DAR 7.9
B2: mAb1 (antibody, human IgG1, kappa)
heavy: B1 heavy
light: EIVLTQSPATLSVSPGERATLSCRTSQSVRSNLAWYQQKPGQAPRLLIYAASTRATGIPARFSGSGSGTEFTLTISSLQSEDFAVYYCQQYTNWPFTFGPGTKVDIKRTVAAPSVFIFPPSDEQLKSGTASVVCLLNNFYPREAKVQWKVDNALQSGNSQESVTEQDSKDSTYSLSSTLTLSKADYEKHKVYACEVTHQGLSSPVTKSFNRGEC
notes: Labelled with pHrodo in the internalization assay; also called so8G4
B3: ADC2 (mAb1-AAN-exatecan) (other)
heavy: B1 heavy
light: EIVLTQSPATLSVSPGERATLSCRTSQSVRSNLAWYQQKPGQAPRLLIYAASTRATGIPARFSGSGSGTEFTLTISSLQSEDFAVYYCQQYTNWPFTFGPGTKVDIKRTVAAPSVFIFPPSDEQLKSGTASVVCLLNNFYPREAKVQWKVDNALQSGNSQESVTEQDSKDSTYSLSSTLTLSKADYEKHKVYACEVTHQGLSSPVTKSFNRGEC
modifications: exatecan attached through the legumain-cleavable Ala-Ala-Asn linker of DL2 (maleimide) to cysteines of reduced interchain disulfides; DAR 7.6
B4: hmn-14 (antibody, human IgG1, kappa, V domains shown)
VH: EVQLVESGGGVVQPGRSLRLSCSASGFDFTTYWMSWVRQAPGKGLEWIGEIHPDSSTINYAPSLKDRFTISRDNAKNTLFLQMDSLRPEDTGVYFCASLYFGFPWFAYWGQGTPVTVSS
VL: DIQLTQSPSSLSASVGDRVTITCKASQDVGTSVAWYQQKPGKAPKLLIYWTSTRHTGVPSRFSGSGSGTDFTFTISSLQPEDIATYYCQQYSLYRSFGQGTKVEIKR
notes: Known comparator antibody, human IgG; also called labetuzumab

Legend:
[1] = target: T1, human CEACAM5 expressed on cancer cell …; assay: cell-based or functional assay
[2] = target: T1, human CEACAM5 expressed on cancer cell …; assay: cell-based or functional assay; remark: listed apart in the source
[3] = target: T1, human CEACAM5 expressed on cancer cell …; assay: cell binding on MKN45 cells, average of several experiments

Row | Binder | fold higher potency than ADC SAR DM4 against SK-CO-1 cancer cells (cell viability) [1] | IC50 [M], cell viability (CellTiter-Glo, 6 days), LS174T [2] | IC50 [M], cell viability (CellTiter-Glo, 6 days), MKN-45 [2] | IC50 [M], cell viability (CellTiter-Glo, 6 days), SK-CO-1 [2] | IC50 [M], cell viability (CellTiter-Glo, 6 days), SNU-16 [2] | EC50 [3]
1 | B1 | 2.9 fold | 3.8e-10 M | 6.2e-10 M | 8.5e-11 M | 3.2e-10 M | 
2 | B2 |  |  |  |  |  | 10.4 nM
3 | B3 | 2.7 fold | 2.8e-10 M | 4.7e-10 M | 6.9e-11 M | 2.8e-10 M | 
4 | B4 |  |  |  |  |  | 16 nM
